Laboratory results taken from US20210107983A1 (Boehringer Ingelheim, published 2021).

Key:
Human B7H1 = target: T1, Human B7H1 (human, UniProt Q9NZQ7 20-239); assay: SPR, binder captured on Protein A/G, HuB7H1 analyte
T1 construct: also called HuB7H1; huB7-H1
Method in brief: (§1)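 B7H6/CD3 binder captured (~700 RU) on a Protein A/G CM5 surface in HBS-EP+. Human or cyno B7H6 injected at 0–100 nM and human B7H1 at 0 nM and 1 μM, 300 s association and 1200 s dissociation. Data double-referenced against the reference flow cell and blank.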

[1] = target: T2, chicken egg white lysozyme (chicken, UniProt P00698 19-147); assay: SPR, 1 µM binder over immobilized lysozyme
T2 construct: unrelated positively charged protein, amine-coupled to the chip; also called Lysozyme (positive)
Method in brief: (§2)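 Non-specific binding tested with samples at 1 μM in HBS-EP at 25 °C, 5 μL/min, over lysozyme or trypsin inhibitor amine-coupled to CM5 chip (3000–5000 RU). Association 10 min, dissociation 15 min.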

Cyno B7H6-His [2] = target: T3, Cyno B7H6-His (cynomolgus monkey); assay: ratio of SPR KDs cyno/human
T3 construct: also called CyB7H6; cyB7-H6
T3 chain: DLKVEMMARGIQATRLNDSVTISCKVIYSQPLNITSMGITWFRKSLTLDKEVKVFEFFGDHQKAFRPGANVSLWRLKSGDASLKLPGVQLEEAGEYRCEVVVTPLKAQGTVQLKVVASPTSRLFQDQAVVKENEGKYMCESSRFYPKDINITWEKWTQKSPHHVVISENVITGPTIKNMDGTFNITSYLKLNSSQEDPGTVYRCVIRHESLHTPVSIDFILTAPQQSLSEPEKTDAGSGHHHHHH

Cyno B7H6-His [3] = target: T3, Cyno B7H6-His; assay: SPR, binder captured on Protein A/G, B7H6 analyte
Method in brief: as §1

Human CD3 E+G HuFc-6xHis = target: T4, Human CD3 E+G HuFc-6xHis (human); assay: SPR, CD3E+G-hFc immobilized, binder analyte
T4 construct: also called HuCD3E+G-hFc; huCD3
Method in brief: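 On a ProteOn XPR36, human and cyno CD3E+G-hFc were amine-coupled to a GLM chip at 0.4, 0.2 and 0.1 μg/mL in 10 mM acetate pH 4.5. B7H6/CD3 binding protein (0–100 nM) flowed in HBS-EP+ at 30 μL/min, with 300 s association and 600 s dissociation. Interspot and blank responses were subtracted.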

[4] = target: T5, trypsin inhibitor from Glycine max soybean (Glycine max (soybean)); assay: SPR, 1 µM binder over immobilized trypsin inhibitor
T5 construct: unrelated negatively charged protein, amine-coupled to the chip
Method in brief: as §2

T5 sequence (P01070 25-205): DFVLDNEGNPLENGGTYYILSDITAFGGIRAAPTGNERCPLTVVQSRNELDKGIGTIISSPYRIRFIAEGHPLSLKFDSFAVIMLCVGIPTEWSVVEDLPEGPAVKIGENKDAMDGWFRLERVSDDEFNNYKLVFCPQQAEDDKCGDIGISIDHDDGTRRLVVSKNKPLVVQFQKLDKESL
T1 sequence (Q9NZQ7 other isoform, or with tags, fused parts or gaps limits assumed): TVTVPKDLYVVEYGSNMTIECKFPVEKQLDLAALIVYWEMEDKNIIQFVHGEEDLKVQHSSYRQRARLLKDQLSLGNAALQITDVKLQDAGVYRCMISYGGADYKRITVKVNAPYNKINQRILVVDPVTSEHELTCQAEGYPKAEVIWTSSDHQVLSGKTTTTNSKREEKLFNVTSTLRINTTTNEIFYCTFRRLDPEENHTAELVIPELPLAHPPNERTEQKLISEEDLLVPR
T4 sequence (chain, as listed by the source limits assumed): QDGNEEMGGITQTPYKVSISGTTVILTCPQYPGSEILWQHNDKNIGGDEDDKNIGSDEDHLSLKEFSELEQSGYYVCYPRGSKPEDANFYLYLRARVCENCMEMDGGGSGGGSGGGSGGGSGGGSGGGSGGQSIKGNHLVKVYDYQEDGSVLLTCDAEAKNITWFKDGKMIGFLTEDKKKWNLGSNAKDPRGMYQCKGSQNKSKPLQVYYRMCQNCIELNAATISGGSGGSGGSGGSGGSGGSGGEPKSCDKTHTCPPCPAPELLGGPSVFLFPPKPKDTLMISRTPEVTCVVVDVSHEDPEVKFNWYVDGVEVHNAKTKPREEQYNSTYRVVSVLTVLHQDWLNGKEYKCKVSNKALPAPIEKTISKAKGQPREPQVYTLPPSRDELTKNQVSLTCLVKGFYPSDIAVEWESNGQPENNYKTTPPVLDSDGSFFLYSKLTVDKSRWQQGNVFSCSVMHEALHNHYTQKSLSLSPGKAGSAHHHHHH
T2 sequence (P00698 19-147): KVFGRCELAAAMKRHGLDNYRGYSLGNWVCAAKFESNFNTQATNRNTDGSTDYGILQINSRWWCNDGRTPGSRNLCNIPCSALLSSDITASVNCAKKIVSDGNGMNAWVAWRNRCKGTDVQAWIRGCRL

B1: B7H6#18/CD3#1 (bispecific antibody, human IgG1, kappa, lambda, L234A L235A)
chain 1: DIQMTQSPSSLSASVGDRVTITCKASQNVGKYVAWYQQKPGKAPKSLIYSASNRYDAVPSRFSGSGSGTDFTLTISSLQPEDFTTYYCQQYISYPLTFGAGTKLEIKRTVAAPSVFIFPPSDEQLKSGTASVVCLLNNFYPREAKVQWKVDNALQSGNSQESVTEQDSKDSTYSLSSTLTLSKADYEKHKVYACEVTHQGLSSPVTKSFNRGECGGGGSEGKSSGSGSESKSTEGKSSGSGSESKSTGGGGSQVQLVQSGAEVKKPGASVKVSCKASGYTFTSYWMNWMRQAPGQGLEWMGGIYLSGDSTDYNEKFKGRVTMTVDTSTSTVYMELSSLRSEDTAVYYCTRRGDYFGDFWGQGTLVTVSSASTKGPSVFPLAPSSKSTSGGTAALGCLVKDYFPEPVTVSWNSGALTSGVHTFPAVLQSSGLYSLSSVVTVPSSSLGTQTYICNVNHKPSNTKVDKRVEPKSCDKTHTCPPCPAPEAAGGPSVFLFPPKPKDTLMISRTPEVTCVVVDVSHEDPEVKFNWYVDGVEVHNAKTKPREEQYNSTYRVVSVLTVLHQDWLNGKEYKCKVSNKALPAPIEKTISKAKGQPREPQVYTLPPSREEMTKNQVSLWCLVKGFYPSDIAVEWESNGQPENNYKTTPPVLDSDGSFFLYSKLTVDKSRWQQGNVFSCSVMHEALHNHYTQKSLSLSPG
chain 2: EAVVTQEPSLTVSPGGTVTLTCRSSTGAVTTSNYANWVQEKPGQLPRGLIGGTNKRAPWVPARFSGSLLGGKAALTLSGAQPEDEAEYFCALWYSNLWVFGGGTKLTVLGQPKAAPSVTLFPPSSEELQANKATLVCLISDFYPGAVKVAWKADGSPVNTGVETTTPSKQSNNKYAASSYLSLTPEQWKSHRSYSCQVTHEGSTVEKTVAPAECSGGGGSEGKSSGSGSESKSTEGKSSGSGSESKSTGGGGSEVQLVESGGGLVQPGGSLKLSCAASGFTFNTYAMNWVRQAPGKGLEWVARIRSKYNNYATYYADSVKDRFTISRDDSKNTAYLQMNNLKTEDTAVYYCVRHGNFGNSYVSWFAYWGQGTLVTVSAASTKGPSVFPLAPSSKSTSGGTAALGCLVKDYFPEPVTVSWNSGALTSGVHTFPAVLQSSGLYSLSSVVTVPSSSLGTQTYICNVNHKPSNTKVDKRVEPKSCDKTHTCPPCPAPEAAGGPSVFLFPPKPKDTLMISRTPEVTCVVVDVSHEDPEVKFNWYVDGVEVHNAKTKPREEQYNSTYRVVSVLTVLHQDWLNGKEYKCKVSNKALPAPIEKTISKAKGQPREPQVYTLPPSREEMTKNQVSLSCAVKGFYPSDIAVEWESNGQPENNYKTTPPVLDSDGSFFLVSKLTVDKSRWQQGNVFSCSVMHEALHNRFTQKSLSLSPG
notes: scFab-Fc heterodimer, one B7H6 chain and one CD3 chain
- binding result (Human B7H1): no binding (tested: 1 µM)
- Non-specific binding (RU) [1]: 6.6 RU
- cy/hu B7-H6 (Cyno B7H6-His [2]): 2.3
- Kd (Cyno B7H6-His [3]): 3.3 nM
- Kd (Human CD3 E+G HuFc-6xHis): 3.9 nM
- Non-specific binding (RU) [4]: 32.8 RU

B2: B7H6#19/CD3#1 (bispecific antibody, human IgG1, kappa, lambda, L234A L235A)
chain 1: DIQMTQSPSSLSASVGDRVTITCKASQNVGKYVAWYQQKPGKAPKSLIYSASNRYDGVPSRFSGSGSGTDFTLTISSLQPEDFTTYYCQQYISYPLTFGAGTKLEIKRTVAAPSVFIFPPSDEQLKSGTASVVCLLNNFYPREAKVQWKVDNALQSGNSQESVTEQDSKDSTYSLSSTLTLSKADYEKHKVYACEVTHQGLSSPVTKSFNRGECGGGGSEGKSSGSGSESKSTEGKSSGSGSESKSTGGGGSQVQLVQSGAEVKKPGASVKVSCKASGYTFTSYWMNWVKQAPGQGLEWMGGIYLSGESTDYNEKFKGKATMTVDTSTSTVYMELSSLRSEDTAVYYCTRRGDYFGDFWGQGTLVTVSSASTKGPSVFPLAPSSKSTSGGTAALGCLVKDYFPEPVTVSWNSGALTSGVHTFPAVLQSSGLYSLSSVVTVPSSSLGTQTYICNVNHKPSNTKVDKRVEPKSCDKTHTCPPCPAPEAAGGPSVFLFPPKPKDTLMISRTPEVTCVVVDVSHEDPEVKFNWYVDGVEVHNAKTKPREEQYNSTYRVVSVLTVLHQDWLNGKEYKCKVSNKALPAPIEKTISKAKGQPREPQVYTLPPSREEMTKNQVSLWCLVKGFYPSDIAVEWESNGQPENNYKTTPPVLDSDGSFFLYSKLTVDKSRWQQGNVFSCSVMHEALHNHYTQKSLSLSPG
chain 2: EAVVTQEPSLTVSPGGTVTLTCRSSTGAVTTSNYANWVQEKPGQLPRGLIGGTNKRAPWVPARFSGSLLGGKAALTLSGAQPEDEAEYFCALWYSNLWVFGGGTKLTVLGQPKAAPSVTLFPPSSEELQANKATLVCLISDFYPGAVKVAWKADGSPVNTGVETTTPSKQSNNKYAASSYLSLTPEQWKSHRSYSCQVTHEGSTVEKTVAPAECSGGGGSEGKSSGSGSESKSTEGKSSGSGSESKSTGGGGSEVQLVESGGGLVQPGGSLKLSCAASGFTFNTYAMNWVRQAPGKGLEWVARIRSKYNNYATYYADSVKDRFTISRDDSKNTAYLQMNNLKTEDTAVYYCVRHGNFGNSYVSWFAYWGQGTLVTVSAASTKGPSVFPLAPSSKSTSGGTAALGCLVKDYFPEPVTVSWNSGALTSGVHTFPAVLQSSGLYSLSSVVTVPSSSLGTQTYICNVNHKPSNTKVDKRVEPKSCDKTHTCPPCPAPEAAGGPSVFLFPPKPKDTLMISRTPEVTCVVVDVSHEDPEVKFNWYVDGVEVHNAKTKPREEQYNSTYRVVSVLTVLHQDWLNGKEYKCKVSNKALPAPIEKTISKAKGQPREPQVYTLPPSREEMTKNQVSLSCAVKGFYPSDIAVEWESNGQPENNYKTTPPVLDSDGSFFLVSKLTVDKSRWQQGNVFSCSVMHEALHNRFTQKSLSLSPG
notes: as for B1
- binding result (Human B7H1): no binding (tested: 1 µM)
- Non-specific binding (RU) [1]: 8.2 RU
- cy/hu B7-H6 (Cyno B7H6-His [2]): 3.1
- Kd (Cyno B7H6-His [3]): 5.1 nM
- Kd (Human CD3 E+G HuFc-6xHis): 4 nM
- Non-specific binding (RU) [4]: 40.3 RU

B3: B7H6#20/CD3#1 (bispecific antibody, human IgG1, kappa, lambda, L234A L235A)
chain 1: DIQMTQSPSSLSASVGDRVTITCKASQNVGKYVAWYQQKPGKAPKSLIYSASNRYDAVPSRFSGSGSGTDFTLTISSLQPEDFTTYYCQQYISYPLTFGAGTKLEIKRTVAAPSVFIFPPSDEQLKSGTASVVCLLNNFYPREAKVQWKVDNALQSGNSQESVTEQDSKDSTYSLSSTLTLSKADYEKHKVYACEVTHQGLSSPVTKSFNRGECGGGGSEGKSSGSGSESKSTEGKSSGSGSESKSTGGGGSQVQLVQSGAEVKKPGASVKVSCKASGYTFTSYWMNWVKQAPGQGLEWMGGIYLSGDSTDYNEKFKGKATMTVDTSTSTVYMELSSLRSEDTAVYYCTRRGDYFGDFWGQGTLVTVSSASTKGPSVFPLAPSSKSTSGGTAALGCLVKDYFPEPVTVSWNSGALTSGVHTFPAVLQSSGLYSLSSVVTVPSSSLGTQTYICNVNHKPSNTKVDKRVEPKSCDKTHTCPPCPAPEAAGGPSVFLFPPKPKDTLMISRTPEVTCVVVDVSHEDPEVKFNWYVDGVEVHNAKTKPREEQYNSTYRVVSVLTVLHQDWLNGKEYKCKVSNKALPAPIEKTISKAKGQPREPQVYTLPPSREEMTKNQVSLWCLVKGFYPSDIAVEWESNGQPENNYKTTPPVLDSDGSFFLYSKLTVDKSRWQQGNVFSCSVMHEALHNHYTQKSLSLSPG
chain 2: EAVVTQEPSLTVSPGGTVTLTCRSSTGAVTTSNYANWVQEKPGQLPRGLIGGTNKRAPWVPARFSGSLLGGKAALTLSGAQPEDEAEYFCALWYSNLWVFGGGTKLTVLGQPKAAPSVTLFPPSSEELQANKATLVCLISDFYPGAVKVAWKADGSPVNTGVETTTPSKQSNNKYAASSYLSLTPEQWKSHRSYSCQVTHEGSTVEKTVAPAECSGGGGSEGKSSGSGSESKSTEGKSSGSGSESKSTGGGGSEVQLVESGGGLVQPGGSLKLSCAASGFTFNTYAMNWVRQAPGKGLEWVARIRSKYNNYATYYADSVKDRFTISRDDSKNTAYLQMNNLKTEDTAVYYCVRHGNFGNSYVSWFAYWGQGTLVTVSAASTKGPSVFPLAPSSKSTSGGTAALGCLVKDYFPEPVTVSWNSGALTSGVHTFPAVLQSSGLYSLSSVVTVPSSSLGTQTYICNVNHKPSNTKVDKRVEPKSCDKTHTCPPCPAPEAAGGPSVFLFPPKPKDTLMISRTPEVTCVVVDVSHEDPEVKFNWYVDGVEVHNAKTKPREEQYNSTYRVVSVLTVLHQDWLNGKEYKCKVSNKALPAPIEKTISKAKGQPREPQVYTLPPSREEMTKNQVSLSCAVKGFYPSDIAVEWESNGQPENNYKTTPPVLDSDGSFFLVSKLTVDKSRWQQGNVFSCSVMHEALHNRFTQKSLSLSPG
notes: as for B1
- binding result (Human B7H1): no binding (tested: 1 µM)
- Non-specific binding (RU) [1]: 9.8 RU
- cy/hu B7-H6 (Cyno B7H6-His [2]): 4.6
- Kd (Cyno B7H6-His [3]): 4.9 nM
- Kd (Human CD3 E+G HuFc-6xHis): 4 nM
- Non-specific binding (RU) [4]: 48.4 RU
